Measurements reported in publication PMC8459632.

Biological target: SpyCatcher‐mi3 fusion protein
Assay: SDS-PAGE of the covalent conjugate

2019‐nCoV RBD‐SpyTag (from UniProt P0DTC2 319-541) (domain or fragment)
stoichiometry N (RBD monomers per particle): 30
